Here are results for six molecules from PMC10470521, “Structural basis of a bi-functional malonyl-CoA reductase (MCR) from the photosynthetic green non-sulfur bacterium Roseiflexus castenholzii” (mBio, 2023).

What is called stoichiometry N is a count of units in the complex or per binding partner. A word on the Km: it is the substrate concentration at which the rate is half of its maximum. As usually defined, the kcat is the number of substrate molecules converted per active site and unit of time at saturation. Usually kcat/Km stands for the turnover number divided by the Michaelis constant.

The target in data set [1] is T1, RfxMCR-C (Roseiflexus castenholzii, UniProt A7NN59).
T1 construct: gene Rcas_2929; C-terminal fragment Gly573-Val1229 (SDR3-ED-SDR4), N-terminal His6 tag (pET28a), E. coli BL21(DE3)
Nature of the data set: X-ray crystal structure, […] Å. The class given is binding. The note with it: ternary complex with MSA; SDR3 / ED interface.

For data set [2], the target named is RfxMCR-C (Gly573-Val1229) (Roseiflexus castenholzii DSM 13941) (UniProt A7NN59). Nature of the data set: crystal structure; RfxMCR-C with NADP+ and MSA; 1.6 M sodium formate, 0.1 M Bis-tris propane pH 7.0, 16°C; P6(5)22, dimer by crystal packing; 2.3 Å.
Substrate in data set [3]: CC(C)(COP(=O)(O)OP(=O)(O)OC[C@H]1O[C@@H](n2cnc3c(N)ncnc32)[C@H](O)[C@@H]1OP(=O)(O)O)[C@@H](O)C(=O)NCCC(=O)NCCSC(=O)CC(=O)O
Description: purified protein. Conditions: 0.4 mM NADPH, 5 mM MgCl2, 100 mM Tris-HCl pH 8.0, 150 mM NaCl, 50°C, apparent, overall two-step reduction. The class given is biochemical, Roseiflexus castenholzii.

Data set [4] concerns the molecule itself. Nature of the data set: SEC; gel filtration on HiLoad 16/600 Superdex 200PG; 25 mM Tris-HCl pH 8.0, 150 mM NaCl. In general terms: In gel filtration, larger molecules generally elute earlier.

For `NC(=O)c1ccc[n+]([C@@H]2O[C@H](COP(=O)(O)OP(=O)(O)OC[C@H]3O[C@@H](n4cnc5c(N)ncnc54)[C@H](OP(=O)(O)O)[C@@H]3O)[C@@H](O)[C@H]2O)c1` [NADP^+], the “X-ray crystal structure, 2.3 Å” value in data set [1] was “a cofactor NADP^+ and intermediate MSA were resolved at the interface between the SDR3”.
In data set [2], “RfxMCR-C (Gly573-Val1229) (from UniProt A7NN59 573-1229) (domain or fragment)” had a stoichiometry N of 2.

B1: full-length malonyl-CoA reductase from Roseiflexus castenholzii (RfxMCR) (enzyme, Roseiflexus castenholzii DSM 13941, UniProt A7NN59 1-1229, looked up)
chain: MSTVRRLEGKVALITGGAGNIGEVITRRFLAEGATVVITGRNAEKLAVYRRRLIDEERVAPERVVALRMDGSDIAQVRAGVAQIVHGGTDVPIPLHRIDILVNNAGSAGPRRRLVDIPLEPSEVQPPDSETLAQAVGNLVGITWNLTRAAAPHMPSGSSVINISTIFSRTDYYGRIAYVAPKAALNALSDGLARELGVRGIRVNTIYPGPIESERIYTMFQAMDALKGQPEGDTASGFLRMMRLSRIDQNGEVVKRFPSPVDVANTAVFLASDESAAFTGHAFEVTHGMEVPTESRTTFVSRPGLRSVDATGKVILICAGDQVDDAVALADTLRSCRATVVIGFRDPRALEKASVLLREPRHALAADMYGRPTMTAEARLVRLDPLDPRAAAQTLEQIHAELGAIHHAVVLPGQSRHAPSASLIEVDDQVVERFLHQELVGTIALARELARFWEEYPSGSSMHRVLFVSNPDDQQGNQYSHILRAAVEQLVRVWRHESEYDSVNPAHQQEGQSSAAVWANQLIRYVNNEMANLDFTCAWVAKLLGSDRRIAEINLYLPEEIVGTIGVHNPGFGWAESLFGLHMGKVALITGGSAGIGGQIGRLLALSGAHVMLAARNADQLEQMRASIVREVRDASYPDAESRVAIFPGSDVSDIDGLERLVNHTVRVFGKVDYLINNAGIAGAEEMVIDMPVDAWRHTLRANLISNYALLRRLAPQMKAAGGAYVLNVSSYFGGEKYVAIPYPNRSDYAVSKAGQRAMVESLARFLGPEIQINAIAPGPVEGERLKGAGSRPGLFMRRARLILENKRLNEVFAALLAARHEGATIADLLPDLFANDIQSIANSAAMPAPLRRLATMLRETSDAGGSAQSYLMNATIARKLLNRLENGGYITLHDRRALTVEPPEPFFTEAQIEREAIKVRDGILGMLHLQRMPTEFDVALATVFYLADRNVTGETFHPSGGLRFERTVTEGELFGKPGQQRLERLKGSVVYLIGEHLRQHLVLLARTFLDEIHVARVVLLTETTQAATDLAAELSDYEAAGRFVVIPTCGDIEGGIDRAMAEYGRPGPVISTPFRPLPDRALSARNGDWSSVLTTAEFEELVEQQITHHFRVARKAGLIEGANVTLVTPPTSARSTSEEFALANFVKTTLHALTATAGAESERTVPHVPVNQVDLTRRARSEEPRTPSEEEEELQRFVNAVLLTSAPLPTPLESRYRARIYRGNAITV
notes: malonyl-CoA reductase (MCR) of Roseiflexus castenholzii DSM 13941, gene Rcas_2929, full length Met1-Val1229; Cloned into pET20b at XhoI and NdeI; also called full-length RfxMCR; wild-type RfxMCR
In the case of B1, in data set [3], the Km amounted to 380 ± 80 µM, the kcat came out at 5.65 ± 0.57 s⁻¹ and the kcat/Km is 14800 ± 1540 M⁻¹ s⁻¹. Moreover, the “stoichiometry N” value in data set [4] stood at 2.

B2: RfxMCR triple mutant W574A E576A F579A (enzyme, Roseiflexus castenholzii DSM 13941)
chain: MSTVRRLEGKVALITGGAGNIGEVITRRFLAEGATVVITGRNAEKLAVYRRRLIDEERVAPERVVALRMDGSDIAQVRAGVAQIVHGGTDVPIPLHRIDILVNNAGSAGPRRRLVDIPLEPSEVQPPDSETLAQAVGNLVGITWNLTRAAAPHMPSGSSVINISTIFSRTDYYGRIAYVAPKAALNALSDGLARELGVRGIRVNTIYPGPIESERIYTMFQAMDALKGQPEGDTASGFLRMMRLSRIDQNGEVVKRFPSPVDVANTAVFLASDESAAFTGHAFEVTHGMEVPTESRTTFVSRPGLRSVDATGKVILICAGDQVDDAVALADTLRSCRATVVIGFRDPRALEKASVLLREPRHALAADMYGRPTMTAEARLVRLDPLDPRAAAQTLEQIHAELGAIHHAVVLPGQSRHAPSASLIEVDDQVVERFLHQELVGTIALARELARFWEEYPSGSSMHRVLFVSNPDDQQGNQYSHILRAAVEQLVRVWRHESEYDSVNPAHQQEGQSSAAVWANQLIRYVNNEMANLDFTCAWVAKLLGSDRRIAEINLYLPEEIVGTIGVHNPGFGAAASLAGLHMGKVALITGGSAGIGGQIGRLLALSGAHVMLAARNADQLEQMRASIVREVRDASYPDAESRVAIFPGSDVSDIDGLERLVNHTVRVFGKVDYLINNAGIAGAEEMVIDMPVDAWRHTLRANLISNYALLRRLAPQMKAAGGAYVLNVSSYFGGEKYVAIPYPNRSDYAVSKAGQRAMVESLARFLGPEIQINAIAPGPVEGERLKGAGSRPGLFMRRARLILENKRLNEVFAALLAARHEGATIADLLPDLFANDIQSIANSAAMPAPLRRLATMLRETSDAGGSAQSYLMNATIARKLLNRLENGGYITLHDRRALTVEPPEPFFTEAQIEREAIKVRDGILGMLHLQRMPTEFDVALATVFYLADRNVTGETFHPSGGLRFERTVTEGELFGKPGQQRLERLKGSVVYLIGEHLRQHLVLLARTFLDEIHVARVVLLTETTQAATDLAAELSDYEAAGRFVVIPTCGDIEGGIDRAMAEYGRPGPVISTPFRPLPDRALSARNGDWSSVLTTAEFEELVEQQITHHFRVARKAGLIEGANVTLVTPPTSARSTSEEFALANFVKTTLHALTATAGAESERTVPHVPVNQVDLTRRARSEEPRTPSEEEEELQRFVNAVLLTSAPLPTPLESRYRARIYRGNAITV
notes: malonyl-CoA reductase (MCR) of Roseiflexus castenholzii DSM 13941, gene Rcas_2929, with W574A, E576A and F579A; source: E. coli BL21(DE3), purified following the same procedure as the wild-type protein
As to B2, the “stoichiometry N” value in data set [4] worked out at 2.

B3: RfxMCR single mutant E576A (enzyme, Roseiflexus castenholzii DSM 13941)
chain: MSTVRRLEGKVALITGGAGNIGEVITRRFLAEGATVVITGRNAEKLAVYRRRLIDEERVAPERVVALRMDGSDIAQVRAGVAQIVHGGTDVPIPLHRIDILVNNAGSAGPRRRLVDIPLEPSEVQPPDSETLAQAVGNLVGITWNLTRAAAPHMPSGSSVINISTIFSRTDYYGRIAYVAPKAALNALSDGLARELGVRGIRVNTIYPGPIESERIYTMFQAMDALKGQPEGDTASGFLRMMRLSRIDQNGEVVKRFPSPVDVANTAVFLASDESAAFTGHAFEVTHGMEVPTESRTTFVSRPGLRSVDATGKVILICAGDQVDDAVALADTLRSCRATVVIGFRDPRALEKASVLLREPRHALAADMYGRPTMTAEARLVRLDPLDPRAAAQTLEQIHAELGAIHHAVVLPGQSRHAPSASLIEVDDQVVERFLHQELVGTIALARELARFWEEYPSGSSMHRVLFVSNPDDQQGNQYSHILRAAVEQLVRVWRHESEYDSVNPAHQQEGQSSAAVWANQLIRYVNNEMANLDFTCAWVAKLLGSDRRIAEINLYLPEEIVGTIGVHNPGFGWAASLFGLHMGKVALITGGSAGIGGQIGRLLALSGAHVMLAARNADQLEQMRASIVREVRDASYPDAESRVAIFPGSDVSDIDGLERLVNHTVRVFGKVDYLINNAGIAGAEEMVIDMPVDAWRHTLRANLISNYALLRRLAPQMKAAGGAYVLNVSSYFGGEKYVAIPYPNRSDYAVSKAGQRAMVESLARFLGPEIQINAIAPGPVEGERLKGAGSRPGLFMRRARLILENKRLNEVFAALLAARHEGATIADLLPDLFANDIQSIANSAAMPAPLRRLATMLRETSDAGGSAQSYLMNATIARKLLNRLENGGYITLHDRRALTVEPPEPFFTEAQIEREAIKVRDGILGMLHLQRMPTEFDVALATVFYLADRNVTGETFHPSGGLRFERTVTEGELFGKPGQQRLERLKGSVVYLIGEHLRQHLVLLARTFLDEIHVARVVLLTETTQAATDLAAELSDYEAAGRFVVIPTCGDIEGGIDRAMAEYGRPGPVISTPFRPLPDRALSARNGDWSSVLTTAEFEELVEQQITHHFRVARKAGLIEGANVTLVTPPTSARSTSEEFALANFVKTTLHALTATAGAESERTVPHVPVNQVDLTRRARSEEPRTPSEEEEELQRFVNAVLLTSAPLPTPLESRYRARIYRGNAITV
notes: malonyl-CoA reductase (MCR) of Roseiflexus castenholzii DSM 13941, gene Rcas_2929, with E576A; source: E. coli BL21(DE3), purified following the same procedure as the wild-type protein
Regarding B3, the “stoichiometry N” value in data set [4] was 2.

B4: RfxMCR double mutant W574A E576A (enzyme, Roseiflexus castenholzii DSM 13941)
chain: MSTVRRLEGKVALITGGAGNIGEVITRRFLAEGATVVITGRNAEKLAVYRRRLIDEERVAPERVVALRMDGSDIAQVRAGVAQIVHGGTDVPIPLHRIDILVNNAGSAGPRRRLVDIPLEPSEVQPPDSETLAQAVGNLVGITWNLTRAAAPHMPSGSSVINISTIFSRTDYYGRIAYVAPKAALNALSDGLARELGVRGIRVNTIYPGPIESERIYTMFQAMDALKGQPEGDTASGFLRMMRLSRIDQNGEVVKRFPSPVDVANTAVFLASDESAAFTGHAFEVTHGMEVPTESRTTFVSRPGLRSVDATGKVILICAGDQVDDAVALADTLRSCRATVVIGFRDPRALEKASVLLREPRHALAADMYGRPTMTAEARLVRLDPLDPRAAAQTLEQIHAELGAIHHAVVLPGQSRHAPSASLIEVDDQVVERFLHQELVGTIALARELARFWEEYPSGSSMHRVLFVSNPDDQQGNQYSHILRAAVEQLVRVWRHESEYDSVNPAHQQEGQSSAAVWANQLIRYVNNEMANLDFTCAWVAKLLGSDRRIAEINLYLPEEIVGTIGVHNPGFGAAASLFGLHMGKVALITGGSAGIGGQIGRLLALSGAHVMLAARNADQLEQMRASIVREVRDASYPDAESRVAIFPGSDVSDIDGLERLVNHTVRVFGKVDYLINNAGIAGAEEMVIDMPVDAWRHTLRANLISNYALLRRLAPQMKAAGGAYVLNVSSYFGGEKYVAIPYPNRSDYAVSKAGQRAMVESLARFLGPEIQINAIAPGPVEGERLKGAGSRPGLFMRRARLILENKRLNEVFAALLAARHEGATIADLLPDLFANDIQSIANSAAMPAPLRRLATMLRETSDAGGSAQSYLMNATIARKLLNRLENGGYITLHDRRALTVEPPEPFFTEAQIEREAIKVRDGILGMLHLQRMPTEFDVALATVFYLADRNVTGETFHPSGGLRFERTVTEGELFGKPGQQRLERLKGSVVYLIGEHLRQHLVLLARTFLDEIHVARVVLLTETTQAATDLAAELSDYEAAGRFVVIPTCGDIEGGIDRAMAEYGRPGPVISTPFRPLPDRALSARNGDWSSVLTTAEFEELVEQQITHHFRVARKAGLIEGANVTLVTPPTSARSTSEEFALANFVKTTLHALTATAGAESERTVPHVPVNQVDLTRRARSEEPRTPSEEEEELQRFVNAVLLTSAPLPTPLESRYRARIYRGNAITV
notes: malonyl-CoA reductase (MCR) of Roseiflexus castenholzii DSM 13941, gene Rcas_2929, with W574A and E576A; source: E. coli BL21(DE3), purified following the same procedure as the wild-type protein
Turning to B4, the “stoichiometry N” value in data set [4] came out at 2.
